In patent publication US20030171255:
Read-outs that look alike come from different tables or passages of the source.

T1: recombinant DARPP-32 phosphorylated in vitro at Ser137 by CK1
T1 sequence (Q9UD71 1-204, species assumed, looked up): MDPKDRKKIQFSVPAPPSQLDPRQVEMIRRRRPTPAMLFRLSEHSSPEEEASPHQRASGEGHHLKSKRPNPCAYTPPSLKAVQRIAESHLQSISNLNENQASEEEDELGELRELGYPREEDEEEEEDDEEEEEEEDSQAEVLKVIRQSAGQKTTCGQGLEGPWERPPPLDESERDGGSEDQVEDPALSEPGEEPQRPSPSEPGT

B1: recombinant His-tagged PP2Ca (protein phosphatase 2C alpha isoform) cloned from rat striatum (protein)
chain: MGAFLDKPKMEKHNAQGQGNGLRYGLSSMQGWRVEMEDAHTAVIGLPSGLETWSFFAVYDGHAGSQVAKYCCEHLLDHITNNQDFKGSAGAPSVENVKNGIRTGFLEIDEHMRVMSEKKHGADRSGSTAVGVLISPQHTYFINCGDSRGLLCRNRKVHFFTQDHKPSNPLEKERIQNAGGSVMIQRVNGSLAVSRALGDFDYKCVHGKGPTEQLVSPEPEVHDIERSEEDDQFIILACDGIWDVMGNEELCDFVRSRLEVTDDLEKVCNEVVDTCLYKGSRDNMSVILICFPNAPKVSAEAVKKEAELDKYLENRVEEIIKKQGEGVPDLVHVMRTLASENIPSLPPGGELASKRNVIEAVYNRLNPYKNDDTDSASTDDMW
B2: recombinant His-tagged PP2Cg (protein phosphatase 2C gamma isoform) cloned from rat striatum (protein)
chain: MGAYLSQPNTVKCSGDGVGAPRLPLPYGFSAMQGWRVSMEDAHNCIPELDNETAMFSVYDGHGGEEVALYCAKYLPDIIKDQKAYKEGKLQKALQDAFLAIDAKLTTDEVIKELAQIAGRPTEDEDDKEKVADEDDVDNEEAALLHEEATMTIEELLTRYGQNCQKGPPHTKSGTGIGDEPEPQGLNGEAGPEDPSRETPSQENGPTAKGHTGPSSNSDHGTEAGQIGEPGTATGEAGPSCSSASDKLPRVAKSKFFEDSEDESDEVEEEEDDSEECSEDEDGYSSEEAENEEDEDDTEEAEEDDDEEMMVPGMEGKEEPGSDSGTTAVVALIRGKQLIVANAGDSRCVVSEAGKALDMSYDHKPEDEVELARIKNAGGKVTMDGRVNGGLNLSRAIGDHFYKRNKNLPPQEQMISALPDIKVLTLTDDHEFMVIACDGIWNVMSSQEVVDFIQSKISQRDENGELRLLSSIVEELLDQCLAPDTSGDGTGCDNMTCIIICFKPRNTVELQPESGKRKLEEALSTEGAEENGNSDKKKAKRD

Key:
[1] = system: recombinant DARPP-32 phosphorylated in vitro at Ser137 by CK1
[2] = molecular target: T1, recombinant DARPP-32 phosphorylated in …; remark: listed apart in the source

Molecule	dephosphorylation of phospho-Ser137-DARPP-32 (release of 32P) [1]	KM [2]	Vmax, µmol mg^-1 min^-1 (µmol mg^-1 min^-1) [2]	dephosphorylation of phospho-Ser137-DARPP-32 (release of 32P) [2]	kcat [2]	kcat/KM [2]	further results
CK1 (casein kinase 1) obtained from New England BioLabs	–	–	–	–	–	–	stoichiometry of in vitro phosphorylation at Ser137 (recombinant DARPP-32): stoichiometry of 1 mol/mol
recombinant His-tagged PP2Cb (protein phosphatase 2C beta isoform) cloned from rat striatum	the PP2Ca, b and g demonstrated similar initial rates of dephosphorylation	–	–	–	–	–	KM [1]: 25.3 µM; Vmax, µmol mg^-1 min^-1 (µmol mg^-1 min^-1) [1]: 0.99; kcat [1]: 0.78 s⁻¹; kcat/KM [1]: 0.031 µM⁻¹ s⁻¹
recombinant His-tagged PP2Cd (protein phosphatase 2C delta isoform) cloned from rat striatum	PP2Cd did not dephosphorylate phospho-Ser137-DARPP-32	–	–	–	–	–	–
B1	–	13.1 µM	0.39	the PP2Ca, b and g demonstrated similar initial rates of dephosphorylation	0.31 s⁻¹	0.023 µM⁻¹ s⁻¹	–
B2	–	7 µM	0.31	the PP2Ca, b and g demonstrated similar initial rates of dephosphorylation	0.32 s⁻¹	0.045 µM⁻¹ s⁻¹	–
